The values that follow come from the nanobody polyreactivity screen of Harvey et al. (2022).

The data set can be described thus: yeast display, Sf9 membrane polyspecificity reagent, FACS + sequencing; frameworks hold sequencing errors. The method in brief: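 Nanobodies from a synthetic yeast display library (Saccharomyces cerevisiae BJ5465), induced 36–48 hours with galactose, were stained 1 hour at 4 °C with 10% biotinylated, detergent-solubilized Sf9 membrane reagent, enriched on streptavidin microbeads, then FACS-sorted. Anti-HA (expression) and streptavidin (reagent binding) fluorescence set low and high (top ~1%) gates. Polyreactivity labels come from the gate of origin. Genes were colony-PCR amplified, MiSeq 2 × 250 sequenced and filtered by CDR length.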
In the case of “QVQLVESGGGLVQAGGSLRLSCAASGSIFSLYAMGWYRQAPGKERELVATISKSGGSTYYADSVKGRFTISRDNAKNTVYLQMNSLKPEDTAVYYCAARLTYTGGQGAYDYWGQGTQVTVSS”, the “polyreactivity (PSR sort gate)” value is “high polyreactivity”. As for “QVQLVESGGGLVQAGGSLRLSCAASGSIFSLYTMGWYRQAPGKERELVARITTSGGTTRYADSVKGRFTISRDTSKNTVYLQMISLKPEDTAVYYCAADRSPFWRGYVRYNYWGQGTQVTVSS”, the “polyreactivity (PSR sort gate)” value is “high polyreactivity”. For the sequence “QVQLVESGGGLVQAGGSLRLSCAASGSIFSLYTMGWYRQAPGKERELVATIRSVGSTNYADSVKGRFTISRDNAKNTVYLQMNSLKPEDTAVYYCAAGWYYGVYYIYDYWGQGTQVNVSS”, the “polyreactivity (PSR sort gate)” value was “high polyreactivity”.

Turning to “QVQLVESGGGLVQAGGSLRLSCAASGSIFSNNAMGWYRPAPGKERELVAAITRSGGNTYYADSVKGRFTISRDNAKNTVYLQMNSLKPEDTAVYYCAASNSHVGPNDYWGQGTQVTVSS”, the “polyreactivity (PSR sort gate)” value is given as “high polyreactivity”.

With “QVQLVESGGGLVQAGGSLRLSCAASGSIFSNYDMGWYRQAPGKERELVAGITRSGTNTYYADSVKGRFTISRDNAKNTVYLKMNRLKPEDTAVYYCAAAIRPGMDYWGQGTQVTVSS”, the “polyreactivity (PSR sort gate)” value is “high polyreactivity”. For the sequence “QVQLVESGGGLVQAGGSLRLSCAASGSIFSPNDMGWYRPAHGKERELVAAITSAGSTFYADSVKGRFTISRDNAKNTVYIQMNSLKPEDTAVDYCSATYISVTDYAYFPLWYGYWGQGTQVTVSS”, the “polyreactivity (PSR sort gate)” value was “low polyreactivity”. In the case of “QVQLVESGGGLVQAGGSLRLSCAASGSIFSPYAMGWYRQAPGKERELVAAISFRASTTYYADSVKGRFTISRDNAKNTVYLQMNSLKPEYTAVYYCAKKRPGFLRYGSIGEFQYDYWGQGTQVTVSS”, the “polyreactivity (PSR sort gate)” value is “low polyreactivity”. With “QVQLVESGGGLVQAGGSLRLSCAASGSIFSQYAMGWYRQAPGKERELVAAITYGGGSTYYADSVKGRFTISRDNAKNTVYLQMNCLKAEDTALYYCAKEFKYWGYPYDYWGQGTQVTVSS” the entry was “low polyreactivity”; with “QVQLVESGGGLVQAGGSLRLSCAASGSIFSRNAMGWYRPAPGKERELVAAITSSGGRTYYADSVKGRFTISRDNAKNTVYLQMNSLKPEDTAVYYCAARARGGDWGSGDYWGQGTQVTVSS”, “high polyreactivity”; with “QVQLVESGGGLVQAGGSLRLSCAASGSIFSRNAMGWYRQAPGKERELVAAISYSGGTTYYADSVKGRFTISRDYAKNTVYLQMNSLKPEDTAVYYCNKRYWVRTGKVSSYDYWGQGTQVSVSS”, “high polyreactivity”. As to “QVQLVESGGGLVQAGGSLRLSCAASGSIFSRNAMGWYRQAPGKERELVAAISYSSGSTYYADSVKGRFTISRDHAKNTVYLQMNSLTPEDTAVYYCAADTTKLQGVEGDYWGQGTQVTVSS”, the “polyreactivity (PSR sort gate)” value was “low polyreactivity”. Turning to “QVQLVESGGGLVQAGGSLRLSCAASGSIFSRNAMGWYRQAPGKERELVAAITRSGGRTYYADSVKGRFTISRDNAKNTVYLQMNSLKPEDTAVYYCNALASQEYDYWGQGTQVTVSS”, the “polyreactivity (PSR sort gate)” value was “high polyreactivity”. In the case of “QVQLVESGGGLVQAGGSLRLSCAASGSIFSRNAMGWYRQAPGKVRELVAAITGSGSSTYYADSVKGRFTISRDNAKNTVYLQMNSLKPEDTAVYYCAKGSWWGYYSYGFDYWGQGTQVTVSS” it was “high polyreactivity”; in that of “QVQLVESGGGLVQAGGSLRLSCAASGSIFSRNDMGWYRQAPGKERELVAAITSDDTSTYYADSVNGRFTISRDNAKNTVYLQMNSLKPEDTAVYYCAADYGNPFDYWGQGTQVTVSS”, “low polyreactivity”; in that of “QVQLVESGGGLVQAGGSLRLSCAASGSIFSRNTMGWYRQAPGKERELVAGISSSGSRTYYADSVKGRFTISRDNAKYTVYLQMNSLKPEDTAVYYCAAEHQRSRGRRYYIGYDYWGQGTQVTVSS”, “low polyreactivity”. In the case of “QVQLVESGGGLVQAGGSLRLSCAASGSIFSRNTMGWYRQAPGKERELVATITSGSNTNYADSVKGRFTISRDNAKNTVYLQMNSLKPEDTAVYYWGQGTQVTVSS”, the “polyreactivity (PSR sort gate)” value is reported as “low polyreactivity”. In the case of “QVQLVESGGGLVQAGGSLRLSCAASGSIFSRYAMGWSRQAPGKERELVAAISKSGGTTYYADSVKGRFTISRDNAKNTVYLQMNSLKPEDTAVYYCNAKRYRNGSIGMGYWGQGSQVTVSS”, the “polyreactivity (PSR sort gate)” value was “high polyreactivity”. In the case of “QVQLVESGGGLVQAGGSLRLSCAASGSIFSRYAMGWYRQAPGKERELVAAISRRRGTTYYADSVKGRFTISRDNAKNTVYLHMNSLKTEDTAVYYCAAVFVTQSFIYDYYYWGQGTQVTVSS” it was “high polyreactivity”; in that of “QVQLVESGGGLVQAGGSLRLSCAASGSIFSRYAMGWYRQAPGKERELVAAISTIGGSTYYADSVKGRFTISRDNAKNTVYLQMNSLIPEDTAVYYCNARQTAALTPRYGYWGQGTQVTVSS”, “high polyreactivity”.

Turning to “QVQLVESGGGLVQAGGSLRLSCAASGSIFSRYTMGWYRQAPGKERELVAAISGSTTRTYYADSVKGRFTISRDNAKNTVYLQMNSLKPEDTAVYYCAATRGRGGRDDYWGQGTQVTVSS”, the “polyreactivity (PSR sort gate)” value is on record as “high polyreactivity”. Turning to “QVQLVESGGGLVQAGGSLRLSCAASGSIFSSNAMGWYIQAPGKERELVAAITSGGSTTYADSVKGRFTISRDNAKNTVNLQMNSLKPEDTAVYYCAADPVYRYYHGWTYLDYDYWGQGTQVTVSS”, the “polyreactivity (PSR sort gate)” value is recorded as “low polyreactivity”. For the sequence “QVQLVESGGGLVQAGGSLRLSCAASGSIFSSNAMGWYRPAPGKERELVAAITSGGSTTYADSVKGRFTISRDNAKNTVYLQMNSLKPEDTAVYYCAADPVYRYYHGWTYLDYDYWGQGTQVTVSS”, the “polyreactivity (PSR sort gate)” value is “low polyreactivity”. In the case of “QVQLVESGGGLVQAGGSLRLSCAASGSIFSSNAMGWYRQAPGKERELVAAITSGGSTTYADSVKGRFPISRDNAKNTVYFQMNSLKPEDTAVYYCAADPVYRYYHGWTYLDYDYWGQGTQVTVSS”, the “polyreactivity (PSR sort gate)” value was “low polyreactivity”. As to “QVQLVESGGGLVQAGGSLRLSCAASGSIFSSNTMGWYRPAPGKERELVAAITSGGGTYYADSVKGRFTISRDNAKNTVSLQMNSLKPEDTAVYYCAAQRVYKSSPSYDYWGQGTLVTVSS”, the “polyreactivity (PSR sort gate)” value is “low polyreactivity”. “QVQLVESGGGLVQAGGSLRLSCAASGSIFSSYAMGWDRQAPGKERELVAAISSGGGSTYYADSVKGRFTISRDNAKHTVYLQMNSLKPEDTAVYYCNAGKEALKTTYTYDYWGQGTQVTVSS”: the “polyreactivity (PSR sort gate)” value was “high polyreactivity”. As to “QVQLVESGGGLVQAGGSLRLSCAASGSIFSSYAMGWYRQAPGKDRELVAAITRSGGSTYYADSVKGRFTISRDNAKNTVYVQMNSLKPEDTAVYYCNARGKGHYYWGQGTQVTVSS”, the “polyreactivity (PSR sort gate)” value is listed as “high polyreactivity”. Take “QVQLVESGGGLVQAGGSLRLSCAASGSIFSSYAMGWYRQAPGKERELVAAIDGSGGSTYADSVKGRFTISRDNAKITVYLQMNRLKPEDTAVYYCAVDSFLVYSAVRPYDYWGLGTQVTVSS”: the “polyreactivity (PSR sort gate)” value is given as “low polyreactivity”. Take “QVQLVESGGGLVQAGGSLRLSCAASGSIFSSYAMGWYRQAPGKERELVAAISQSGGDTYYADSVKGRFTISRDNAKNTVYLQMNSLKPEDTAVYYCAASFWYYPMDYWGQGTQVTVSS”: the “polyreactivity (PSR sort gate)” value is “low polyreactivity”. “QVQLVESGGGLVQAGGSLRLSCAASGSIFSSYAMGWYRQAPGKERELVAAITTRGDSTRYADSVKGRFTISRDNAKNTVYLQMNSLKPEDTAVYYCAARRRGASKYGYWGQGTQVTVSS”: the “polyreactivity (PSR sort gate)” value is listed as “high polyreactivity”.

With “QVQLVESGGGLVQAGGSLRLSCAASGSIFSSYAMGWYRQAPGKERELVAVITSGDSTNYADSVKGRFTISRDNAKNTVYLQMNSLKPEDTAVYYCAAGTQAHAYVVRPIEMDYWGQGTQVTVSS”, the “polyreactivity (PSR sort gate)” value is “low polyreactivity”.

Take “QVQLVESGGGLVQAGGSLRLSCAASGSIFSTNAMGWYRQAPRKERELVAAITYSGSRTYYADSVKGRFTISRDNAKNTVYLQMNSLKPEDTAVYYCAADTSWYSWWFDYWGQGTQVTVSS”: the “polyreactivity (PSR sort gate)” value was “low polyreactivity”. Turning to “QVQLVESGGGLVQAGGSLRLSCAASGSIFSTNGMGWYRQAPGKERELVAAISTGGRTYYADSVKGRFTISRDNAKNTVYLQMNSLKPEETAVYYCAKDHWTTTYDEGDYWGQGTEVTVSS”, the “polyreactivity (PSR sort gate)” value is reported as “low polyreactivity”. As for “QVQLVESGGGLVQAGGSLRLSCAASGSIFSTYAMGWYRQAPGKERELVAAISGSGGRTYYADSVKGRFTISRDNAKNTVYLQMNSLKPEDTAVYDCASRVFRGLGEYYWGQGTQVTVSS”, the “polyreactivity (PSR sort gate)” value is listed as “high polyreactivity”. Consider “QVQLVESGGGLVQAGGSLRLSCAASGSIFSTYAMGWYRQAPGKERELVAAISGSGGSTYYADSVKGRFTISRDNAKNTVYLQMNSLKPEDTAVYYCNRLPYVSSAYVGLGYWGQGTQVTVSS”, for which the “polyreactivity (PSR sort gate)” value is given as “high polyreactivity”.

In the case of “QVQLVESGGGLVQAGGSLRLSCAASGSIFSTYAMGWYRQAPGKERELVAAISVSGSSTYYADSVKGRFTISRDNAKNTVYLQMNSLKPEDTAVYYCNKAFRSVRPRRRYDYWGQGTQVTVSS”, the “polyreactivity (PSR sort gate)” value is reported as “low polyreactivity”. In the case of “QVQLVESGGGLVQAGGSLRLSCAASGSIFSTYAMGWYRQAPGKERELVAAITSDGTYADSVKGRFTISRDNAKNTVYLQLNSLKPEDTAVYYCNKDIKSATDSYHYEDDYWGQGTQVTVSS” it was “low polyreactivity”. As for “QVQLVESGGGLVQAGGSLRLSCAASGSIFSTYAMGWYRQAPGKERELVATINYSGGSTYYADSVKGRFTISRDNAKNTVYLQMNSLKPEDTAVYYCNTGPFVGFDYWGQGTQVTVSS”, the “polyreactivity (PSR sort gate)” value is “low polyreactivity”. For “QVQLVESGGGLVQAGGSLRLSCAASGSIFSVNAMGWYRQAPGKERELVATIRWSGSSTYYADSVKGRFTISRDNAKNSVYLQMKSLKPEDTAVYYCAADSTEIPWCGMDYWGQGTQVTLSS”, the “polyreactivity (PSR sort gate)” value is “low polyreactivity”. In the case of “QVQLVESGGGLVQAGGSLRLSCAASGSIFSVNAMGWYRQAPGKETELVAGITISGGRTYYADSVKGRFTISRDNAKNTVYLQLNSLKPEDNAVYYCAADWVYPPGLKDSVHFGEYDYWGEGTQVTVSS” it was “low polyreactivity”; in that of “QVQLVESGGGLVQAGGSLRLSCAASGSIFSVYAMGWYRQAPGKERELVAAINWDGTSTDYADSVKGRFTISRDNAKNTVYLQMNSLKPEDTAVYYCAAEGHTAFLVYRVSPLQYDYWGQGTQVTVSS”, “low polyreactivity”.
